Assays:
[1] = biological target: Alexa-488 maleimide-labeled α-syn^ΔCTD (Δ104-140, A18C) (human) (UniProt P37840); experiment: fluorescence polarisation
[2] = biological target: Alexa-488 maleimide-labeled α-synuclein (G132C) (human) (UniProt P37840); experiment: fluorescence polarisation

Substance	fold rise of Kd on removing the CTD of α-syn [1] [fold]	Kd [2] [nM]
SARS-CoV-2 nucleocapsid protein with the NTD deleted (NP^ΔNTD) (domain or fragment)	4	3670
SARS-CoV-2 nucleocapsid protein with the CTD deleted (NP^ΔCTD) (domain or fragment)	3.5	1850

Source: article doi:10.1101/2025.07.10.664163
